Assay results: patent US20160333096A1 (published 2016)

T1: canine PD-1 antigen (canine)
T1 construct: also called cPD-1; canine Programmed Death Receptor 1
T1 chain: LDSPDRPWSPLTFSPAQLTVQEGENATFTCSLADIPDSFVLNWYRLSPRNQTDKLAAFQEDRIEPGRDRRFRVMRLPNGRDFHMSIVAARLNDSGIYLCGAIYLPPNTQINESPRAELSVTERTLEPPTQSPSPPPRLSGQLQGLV


Key:
canine PD-1 antigen [1] = target: T1, canine PD-1 antigen; assay: SPR (Biacore T200), canine PD-1 amine-coupled to chip, antibody as analyte, 1:1 fit
Source text: (§1) Approximately 70 resonance units (RU) of the canine PD-1 antigen was immobilized directly by amine coupling. Affinity measurements were made via label-free surface plasmon resonance based technology (e.g., Biacore® T200) with an association time of 300 seconds, a dissociation time of 1200 seconds, and at concentrations of 50, 100, 200 (×2) 400, and 800 nanomolar (nM). A fitting model of 1:1 binding was used. […] Moreover, the mouse anti-canine PD-1 monoclonal antibody and the corresponding caninized mouse anti-canine PD-1 monoclonal antibody from the same clone yielded strikingly similar Kd values (see Table 5 below).

canine PD-1 antigen [2] = target: T1, canine PD-1 antigen; assay: SPR (Biacore T200), canine PD-1 amine-coupled to chip, antibody as analyte, 1:1 fit; off-rate below detection limit
Source text: as §1

Binder | Kd (canine PD-1 antigen [1]) [nM] | koff (canine PD-1 antigen [1]) [s⁻¹] | kon (canine PD-1 antigen [1]) [M⁻¹ s⁻¹] | Kd (canine PD-1 antigen [2]) [nM] | koff (canine PD-1 antigen [2]) [s⁻¹]
Murine 3B6 (antibody, V domains shown, Mouse monoclonal IgG from hybridoma; also called mAb 3B6) VH: QIQLVQSGPELKKPGETVKISCKASGYTFTTYGMSWVKQAPGKGLKWMGWINIYSGIPTYADDFKGRFAFSLETSASTAYLQIDNLKNEDTATYFCARFDGPDYWGQGTTLTVSS VL: DIVMTQSPSSLAVSVGRKVTMSCKSSQSLLNSVNQKNYLAWYQQKPGQSPKVLVYFASARVSGVPDRFIGSGSGTDFTLAISSVQAEDLTTYFCQQYFSTPLTFGAGTKLELK | 2 | 3.4e-05 | 18000 |  | 
Murine 2H9 (antibody, V domains shown, also called mAb 2H9) VH: EVQLQQSVAELVRPGASVKLSCTASGFNIKNTYMHWIKQRPEQGLEWIGRIAPANVDTKYAPKFQGKATITADTSSNTAYMQLSTLTSEDTAIYYCVLIYYDYDGDIDVWGTGTTVTVSS VL: DIQMNQSPSSLSASLGDTITITCHASQNINVWLSWYQQRPGNIPKLLIYKASHLHTGVPSRFSGSGSGTGFTLTISSLQPEDIATYYCQQGQSWPLTFGAGTKLELK |  |  | 23000 | ≤ 0.2 | ≤ 5e-06
